Tested on: MCF10A
Assay: percent viability (nuclei count relative to siNT); higher = more viable cells
Conditions: 20 nM; 72 h
Procedure: (§1)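 After 72 h, cells were fixed and stained with Hoechst and anti-fibrillarin, and nucleoli per nucleus were counted with CellProfiler. Values are plate-adjusted percent effect for the one-nucleolus and 5+ nucleoli phenotypes, normalised to siNT (0%) and to the positive controls siNOL11 or siKIF11 (100%), as the mean of biological triplicates. Percent viability is the nuclei count relative to siNT.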

| Sequence | percent viability [%] |
| --- | --- |
| CUAUACAACUUACUACUUUCCC [hsa-miR-98-3p] | 59.1 |
| CCUUCACUGUGACUCUGCUGCAG [hsa-miR-6837-3p] | 180 |
| ACCAGGAGGCUGAGGCCCCU [hsa-miR-665] | 30.2 |
| AAUGACACGAUCACUCCCGUUGA [hsa-miR-425-5p] | 74.9 |
| AAGCGACCAUGAUGUAACUUCA [hsa-miR-4670-5p] | 49.2 |
| UGAGCUGCUGUACCAAAAU [hsa-miR-558] | 65.1 |
| UACAGCCCUGUGAUCUUUCCAG [hsa-miR-6856-3p] | 74.9 |
| CGUGUAUUUGACAAGCUGAGUU [hsa-miR-223-5p] | 20 |
| UUGAAAGGCUAUUUCUUGGUC [hsa-miR-488-3p] | 36.8 |
| UAAUUUUAUGUAUAAGCUAGU [hsa-miR-590-3p] | 121 |
| UCACAAAUCUAUAAUAUGCAGG [hsa-miR-4719] | 149 |
| AGGUGGAUGCAAUGUGACCUCA [hsa-miR-3165] | 3.1 |
| GAGAGGAACAUGGGCUCAGGACA [hsa-miR-6859-5p] | 75.5 |
| CUCAGUAGCCAGUGUAGAUCCU [hsa-miR-222-5p] | 57.4 |
| UAGUACCAGUACCUUGUGUUCA [hsa-miR-624-5p] | 26.3 |
| GCUGGGCGAGGCUGGCA [hsa-miR-4486] | 38.6 |
| GUGCAUGGCUGUAUAUAUAACA [hsa-miR-5011-3p] | 56.9 |
| GUGUUCUCUGAUGGACAG [hsa-miR-4273] | 49.3 |
| UUGGGGAAACGGCCGCUGAGUG [hsa-miR-2110] | 42.2 |
| UGACUAACUCCCACUCUACAG [hsa-miR-6831-3p] | 41.8 |

| Sequence | percent viability [%] |
| --- | --- |
| UCUACAAAGGAAAGCGCUUUCU [hsa-miR-1283] | 148 |
| CCCGGACAGGCGUUCGUGCGACGU [hsa-miR-3687] | 86.1 |
| AGACAUCAAGAUCAGUCCCAAA [hsa-miR-3913-3p] | 21.7 |
| GCCCUCCGCCCGUGCACCCCG [hsa-miR-1470] | 113 |
| CUCUGGGAAAUGGGACAG [hsa-miR-4314] | 25.6 |
| CACACAUAGCAGGUGUAUAUA [hsa-miR-4789-3p] | 67.3 |
| GAACGGCUUCAUACAGGAGUU [hsa-miR-337-5p] | 53.8 |
| UUUGUGACCUGGUCCACUAACC [hsa-miR-758-3p] | 52.5 |
| CACAGCAAGUGUAGACAGGCA [hsa-miR-3120-3p] | 51.8 |
| AUAUUAUUAGCCACUUCUGGAU [hsa-miR-4795-3p] | 27.9 |
| ACCUGUCUGUGGAAAGGAGCUA [hsa-miR-4421] | 30.7 |
| AAUCAUACACGGUUGACCUAUU [hsa-miR-154-3p] | 67.2 |
| AUGGUCUCCUGUUCUCUGCAG [hsa-miR-6843-3p] | 31.7 |
| UGAGGGGUUUGGAAUGGGAUGG [hsa-miR-5194] | 14.8 |
| GUGUCUGCUUCCUGUGGGA [hsa-miR-632] | 37 |
| UGCCCUUCUCUCCUCCUGCCU [hsa-miR-6886-3p] | 35.2 |
| AGACCUGGCCCAGACCUCAGC [hsa-miR-631] | 25.9 |
| AGGCAAGAUGCUGGCAUAGCU [hsa-miR-31-5p] | 16.8 |
| AGAGCUGGCUGAAGGGCAG [hsa-miR-4487] | 18.7 |
| CUCCAGAGGGAUGCACUUUCU [hsa-miR-525-5p] | 36.5 |

| Sequence | percent viability [%] |
| --- | --- |
| AAUCCUUGCUACCUGGGU [hsa-miR-500b] | 32.3 |
| AUAUUACCAUUAGCUCAUCUUU [hsa-miR-556-3p] | 46.5 |
| UCAGGCCAGGCACAGUGGCUCA [hsa-miR-1972] | 30.6 |
| UGAGGAGAUCGUCGAGGUUGG [hsa-miR-3150b-3p] | 47.3 |
| AGCCUGUGCUUGUCCCUGCAG [hsa-miR-6811-3p] | 11.8 |
| CCAACCUAGGUGGUCAGAGUUG [hsa-miR-4714-3p] | 98.3 |
| UUCUCUUUCUUUAGCCUUGUGU [hsa-miR-4753-3p] | 22.1 |
| AAUCACUAACCACACGGCCAGG [hsa-miR-34c-3p] | 70.3 |
| UCUCUGAGUACCAUAUGCCUUGU [hsa-miR-3921] | 59.6 |
| UUUCCUCAUAUUCAUUCAGGA [hsa-miR-670-3p] | 46.6 |
| CCGUGUUUCCCCCACGCUUU [hsa-miR-3676-3p] | 72.3 |
| UCUCACCCCAACUCUGCCCCAG [hsa-miR-6784-3p] | 56.5 |
| CGCAUCCCCUAGGGCAUUGGUGU [hsa-miR-324-5p] | 76.6 |
| UGGACUGCCCUGAUCUGGAGA [hsa-miR-1288] | 33 |
| UCAGUGCAUGACAGAACUUGG [hsa-miR-152] | 145 |
| UCACUCUCACCUUGCUUUGC [hsa-miR-4639-3p] | 63 |
| CUGGGAGGUGUGAUAUUGUGGU [hsa-miR-3689b-3p] | 11.3 |
| UGUGACCCUAGAAUAAUUAC [hsa-miR-7973] | 29.4 |
| CAUGCUAGGAUAGAAAGAAUGG [hsa-miR-3146] | 30.5 |
| GCCGGGGCUUUGGGUGAGGG [hsa-miR-6784-5p] | 171 |

Tested on: MCF10A
Assay: 5+ nucleoli phenotype percent effect (relative to siNT 0% and siKIF11 100%); higher = more cells with five or more nucleoli
Conditions: 20 nM; 72 h
Procedure: as §1

| Sequence | 5+ nucleoli phenotype percent effect [%] |
| --- | --- |
| CUAUACAACUUACUACUUUCCC [hsa-miR-98-3p] | 45.5 |
| CCUUCACUGUGACUCUGCUGCAG [hsa-miR-6837-3p] | 50.7 |
| ACCAGGAGGCUGAGGCCCCU [hsa-miR-665] | -29.1 |
| AAUGACACGAUCACUCCCGUUGA [hsa-miR-425-5p] | 16.6 |
| AAGCGACCAUGAUGUAACUUCA [hsa-miR-4670-5p] | -4.37 |
| UGAGCUGCUGUACCAAAAU [hsa-miR-558] | 0.086 |
| UACAGCCCUGUGAUCUUUCCAG [hsa-miR-6856-3p] | 21 |
| CGUGUAUUUGACAAGCUGAGUU [hsa-miR-223-5p] | -35 |
| UUGAAAGGCUAUUUCUUGGUC [hsa-miR-488-3p] | -44.7 |
| UAAUUUUAUGUAUAAGCUAGU [hsa-miR-590-3p] | 34.3 |
| UCACAAAUCUAUAAUAUGCAGG [hsa-miR-4719] | 40.1 |
| AGGUGGAUGCAAUGUGACCUCA [hsa-miR-3165] | -22.9 |
| GAGAGGAACAUGGGCUCAGGACA [hsa-miR-6859-5p] | 41.6 |
| CUCAGUAGCCAGUGUAGAUCCU [hsa-miR-222-5p] | -14.7 |
| UAGUACCAGUACCUUGUGUUCA [hsa-miR-624-5p] | -9.19 |
| GCUGGGCGAGGCUGGCA [hsa-miR-4486] | 3.78 |
| GUGCAUGGCUGUAUAUAUAACA [hsa-miR-5011-3p] | 19.5 |
| GUGUUCUCUGAUGGACAG [hsa-miR-4273] | 10.3 |
| UUGGGGAAACGGCCGCUGAGUG [hsa-miR-2110] | -27.7 |
| UGACUAACUCCCACUCUACAG [hsa-miR-6831-3p] | 16.8 |
| UCUACAAAGGAAAGCGCUUUCU [hsa-miR-1283] | 29.7 |
| CCCGGACAGGCGUUCGUGCGACGU [hsa-miR-3687] | 26.3 |
| AGACAUCAAGAUCAGUCCCAAA [hsa-miR-3913-3p] | 10.4 |
| GCCCUCCGCCCGUGCACCCCG [hsa-miR-1470] | 45.2 |
| CUCUGGGAAAUGGGACAG [hsa-miR-4314] | -5.34 |
| CACACAUAGCAGGUGUAUAUA [hsa-miR-4789-3p] | 39.4 |
| GAACGGCUUCAUACAGGAGUU [hsa-miR-337-5p] | -25.8 |
| UUUGUGACCUGGUCCACUAACC [hsa-miR-758-3p] | -42 |
| CACAGCAAGUGUAGACAGGCA [hsa-miR-3120-3p] | 22.9 |
| AUAUUAUUAGCCACUUCUGGAU [hsa-miR-4795-3p] | -25.8 |
